In PMC9482650, “Quantitative fragmentomics allow affinity mapping of interactomes” (Nature Communications, 2022):

Experiments:
Assay in all cases: holdup assay
Set-up in all cases: key: below the threshold = too weak to quantify, mostly under pKd 3.1 to 4
Conditions in all cases: plain residues with an end cap or a label only (N-terminal biotin on a linker: ado-ado)
DLG1_3, Q12959 = target: DLG1_3, Q12959
DLG2_3, Q15700 = target: DLG2_3, Q15700
DLG3_1, Q92796 = target: T1, DLG3_1, Q92796
T1 sequence (Q92796 125-227, limits assumed, looked up): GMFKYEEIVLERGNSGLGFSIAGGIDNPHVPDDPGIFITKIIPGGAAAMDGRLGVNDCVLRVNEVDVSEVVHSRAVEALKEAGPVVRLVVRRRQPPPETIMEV

DVL3, Q92997 = target: T2, DVL3, Q92997
T2 sequence (Q92997 244-331, limits assumed, looked up): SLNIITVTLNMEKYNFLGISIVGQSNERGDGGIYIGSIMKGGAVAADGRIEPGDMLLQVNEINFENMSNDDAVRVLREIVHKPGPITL

GRID2IP_2, A4D2P6 = target: GRID2IP_2, A4D2P6
GRIP1_3, Q9Y3R0 = target: T3, GRIP1_3, Q9Y3R0
T3 sequence (Q9Y3R0 247-346, limits assumed, looked up): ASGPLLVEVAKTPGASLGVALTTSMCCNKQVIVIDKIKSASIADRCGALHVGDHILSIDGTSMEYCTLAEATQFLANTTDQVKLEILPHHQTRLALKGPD

GRIP1_7, Q9Y3R0 = target: T4, GRIP1_7, Q9Y3R0
T4 sequence (Q9Y3R0 999-1096, limits assumed, looked up): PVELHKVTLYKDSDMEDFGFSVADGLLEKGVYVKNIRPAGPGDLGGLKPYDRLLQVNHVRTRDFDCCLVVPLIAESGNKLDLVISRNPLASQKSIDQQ

GRIP2_7, Q9C0E4 = target: GRIP2_7, Q9C0E4
HTRA1, Q92743 = target: HTRA1, Q92743
Inadl_5, Q8NI35 = target: Inadl_5, Q8NI35
LIMK2, P53671 = target: LIMK2, P53671
LRRC7, Q96NW7 = target: T5, LRRC7, Q96NW7
T5 sequence (Q96NW7 1440-1537, limits assumed, looked up): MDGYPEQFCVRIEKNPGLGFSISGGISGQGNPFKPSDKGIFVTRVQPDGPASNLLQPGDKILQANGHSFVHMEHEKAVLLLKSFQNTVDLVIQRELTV

MAGI2_4, Q86UL8 = target: MAGI2_4, Q86UL8
MAST1, Q9Y2H9 = target: MAST1, Q9Y2H9
MPP7, Q5T2T1 = target: T6, MPP7, Q5T2T1
T6 sequence (Q5T2T1 134-230, limits assumed, looked up): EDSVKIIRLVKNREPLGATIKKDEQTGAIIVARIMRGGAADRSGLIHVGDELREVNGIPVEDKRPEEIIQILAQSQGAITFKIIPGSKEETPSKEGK

NHERF3_3, Q5T2W1 = target: T7, NHERF3_3, Q5T2W1
T7 sequence (Q5T2W1 238-333, limits assumed, looked up): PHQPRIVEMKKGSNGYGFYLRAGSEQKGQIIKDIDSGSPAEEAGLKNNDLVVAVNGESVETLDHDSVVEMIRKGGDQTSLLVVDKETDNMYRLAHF

NHERF3_4, Q5T2W1 = target: T8, NHERF3_4, Q5T2W1
T8 sequence (Q5T2W1 373-468, limits assumed, looked up): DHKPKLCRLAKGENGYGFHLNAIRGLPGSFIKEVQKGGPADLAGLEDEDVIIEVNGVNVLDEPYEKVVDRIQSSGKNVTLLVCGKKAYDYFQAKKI

PCLO, Q9Y6V0 = target: T9, PCLO, Q9Y6V0
T9 sequence (Q9Y6V0 4491-4600, limits assumed, looked up): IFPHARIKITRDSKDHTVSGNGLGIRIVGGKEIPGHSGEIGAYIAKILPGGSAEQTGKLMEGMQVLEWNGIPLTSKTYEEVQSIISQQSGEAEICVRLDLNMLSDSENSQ

PDZRN4_1, Q6ZMN7 = target: PDZRN4_1, Q6ZMN7
RHPN1, Q8TCX5 = target: T10, RHPN1, Q8TCX5
T10 sequence (Q8TCX5 508-602, limits assumed, looked up): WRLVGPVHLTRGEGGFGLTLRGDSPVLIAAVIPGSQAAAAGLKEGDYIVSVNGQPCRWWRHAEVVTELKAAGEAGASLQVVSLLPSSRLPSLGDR

SNTA1, Q13424 = target: T11, SNTA1, Q13424
T11 sequence (Q13424 82-180, limits assumed, looked up): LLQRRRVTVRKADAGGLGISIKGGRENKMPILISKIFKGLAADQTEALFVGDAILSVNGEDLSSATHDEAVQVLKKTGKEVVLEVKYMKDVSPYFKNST

SYNJ2BP, P57105 = target: T12, SYNJ2BP, P57105
T12 sequence (P57105 8-110, limits assumed, looked up): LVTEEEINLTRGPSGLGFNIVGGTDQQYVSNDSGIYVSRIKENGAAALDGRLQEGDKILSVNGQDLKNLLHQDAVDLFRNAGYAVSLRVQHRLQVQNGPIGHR

TX1BP3, O14907 = target: T13, TX1BP3, O14907
T13 sequence (O14907 10-122, limits assumed, looked up): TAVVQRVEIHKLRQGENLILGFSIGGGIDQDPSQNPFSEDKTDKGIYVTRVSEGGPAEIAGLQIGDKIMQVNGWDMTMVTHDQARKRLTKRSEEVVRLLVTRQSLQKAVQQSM

Sequence of LIMK2, P53671 (P53671 143-248): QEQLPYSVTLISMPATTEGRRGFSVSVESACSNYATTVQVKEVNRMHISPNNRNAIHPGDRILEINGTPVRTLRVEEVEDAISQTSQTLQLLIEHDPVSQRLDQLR
Sequence of Inadl_5, Q8NI35 (Q8NI35 673-780): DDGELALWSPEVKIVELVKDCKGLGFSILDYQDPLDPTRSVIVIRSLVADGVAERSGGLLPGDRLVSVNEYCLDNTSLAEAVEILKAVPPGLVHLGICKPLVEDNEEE
Sequence of MAST1, Q9Y2H9 (Q9Y2H9 962-1065): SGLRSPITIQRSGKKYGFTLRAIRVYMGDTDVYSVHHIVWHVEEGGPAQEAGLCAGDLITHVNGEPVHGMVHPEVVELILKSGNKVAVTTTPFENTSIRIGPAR
Sequence of DLG1_3, Q12959 (Q12959 457-571): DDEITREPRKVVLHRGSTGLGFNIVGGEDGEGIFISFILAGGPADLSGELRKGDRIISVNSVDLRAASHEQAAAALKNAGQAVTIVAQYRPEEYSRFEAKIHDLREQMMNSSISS
Sequence of GRIP2_7, Q9C0E4 (Q9C0E4 934-1023): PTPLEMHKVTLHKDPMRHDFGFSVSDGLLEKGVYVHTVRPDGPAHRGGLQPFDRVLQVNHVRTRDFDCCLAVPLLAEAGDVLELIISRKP
Sequence of MAGI2_4, Q86UL8 (Q86UL8 772-865): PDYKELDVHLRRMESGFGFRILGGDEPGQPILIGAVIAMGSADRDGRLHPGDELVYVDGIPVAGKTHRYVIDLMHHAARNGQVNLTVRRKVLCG
Sequence of HTRA1, Q92743 (Q92743 360-477): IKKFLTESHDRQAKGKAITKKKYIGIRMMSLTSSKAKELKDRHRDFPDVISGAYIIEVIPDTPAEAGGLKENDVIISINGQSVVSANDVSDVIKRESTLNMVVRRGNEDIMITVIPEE
Sequence of PDZRN4_1, Q6ZMN7 (Q6ZMN7 213-318): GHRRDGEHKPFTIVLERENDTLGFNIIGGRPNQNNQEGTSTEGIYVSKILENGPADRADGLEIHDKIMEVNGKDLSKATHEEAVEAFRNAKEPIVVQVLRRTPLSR
Sequence of GRID2IP_2, A4D2P6 (A4D2P6 272-370): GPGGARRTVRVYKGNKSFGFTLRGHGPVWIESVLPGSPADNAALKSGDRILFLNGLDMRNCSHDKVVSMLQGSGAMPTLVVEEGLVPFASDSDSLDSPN

Row | Binder | pKd (DLG1_3, Q12959) | pKd (DLG2_3, Q15700) | pKd (DLG3_1, Q92796) | pKd (DVL3, Q92997) | pKd (GRID2IP_2, A4D2P6) | pKd (GRIP1_3, Q9Y3R0) | pKd (GRIP1_7, Q9Y3R0) | pKd (GRIP2_7, Q9C0E4) | pKd (HTRA1, Q92743) | pKd (Inadl_5, Q8NI35) | pKd (LIMK2, P53671) | pKd (LRRC7, Q96NW7) | pKd (MAGI2_4, Q86UL8) | pKd (MAST1, Q9Y2H9) | pKd (MPP7, Q5T2T1) | pKd (NHERF3_3, Q5T2W1) | pKd (NHERF3_4, Q5T2W1) | pKd (PCLO, Q9Y6V0) | pKd (PDZRN4_1, Q6ZMN7) | pKd (RHPN1, Q8TCX5) | also measured
1 | MQILSKPEFI [NPSR1, Q6W5P4] | below the threshold | 3.53 | below the threshold | 3.61 | below the threshold | below the threshold | below the threshold | 3.69 | 4.15 | 3.53 | below the threshold | below the threshold | below the threshold | 3.68 | below the threshold | below the threshold | 3.51 | below the threshold | below the threshold | below the threshold | pKd (SNTA1, Q13424): below the threshold; pKd (SYNJ2BP, P57105): below the threshold; pKd (TX1BP3, O14907): below the threshold
2 | KIEDVEITLV [FCHSD2, O94868] | 3.59 | below the threshold | below the threshold | below the threshold | 4.63 | below the threshold | below the threshold | below the threshold | 5.5 | below the threshold | below the threshold | below the threshold | 4.07 | 4.16 | below the threshold | below the threshold | below the threshold | below the threshold | 3.64 | 4.76 | pKd (SNTA1, Q13424): 3.76; pKd (SYNJ2BP, P57105): 3.82; pKd (TX1BP3, O14907): 3.98
3 | KEKASTETEC [TRPM1, Q7Z4N2] | below the threshold | below the threshold | below the threshold | below the threshold | below the threshold | below the threshold | below the threshold | below the threshold | 3.62 | below the threshold | below the threshold | below the threshold | below the threshold | 4.09 | below the threshold | below the threshold | below the threshold | below the threshold | below the threshold | below the threshold | pKd (SNTA1, Q13424): 3.77; pKd (SYNJ2BP, P57105): 3.83; pKd (TX1BP3, O14907): below the threshold
4 | QKASRNESTF [POLR1D, P0DPB6] | below the threshold | 3.82 | below the threshold | below the threshold | below the threshold | below the threshold | below the threshold | below the threshold | below the threshold | below the threshold | below the threshold | below the threshold | 3.88 | 4.08 | below the threshold | below the threshold | below the threshold | below the threshold | below the threshold | below the threshold | pKd (SNTA1, Q13424): below the threshold; pKd (SYNJ2BP, P57105): below the threshold; pKd (TX1BP3, O14907): below the threshold
5 | RDYTQSSSSL [GRM5, P41594] | below the threshold | below the threshold | below the threshold | below the threshold | 4.12 | below the threshold | below the threshold | below the threshold | below the threshold | below the threshold | below the threshold | below the threshold | below the threshold | 4.67 | below the threshold | below the threshold | 3.64 | below the threshold | below the threshold | 3.51 | pKd (SNTA1, Q13424): below the threshold; pKd (SYNJ2BP, P57105): 3.82; pKd (TX1BP3, O14907): 3.53
6 | DSEEELPTRL [GRK6, P43250] | 3.73 | below the threshold | below the threshold | below the threshold | below the threshold | below the threshold | below the threshold | below the threshold | 4.18 | below the threshold | below the threshold | below the threshold | 3.47 | 4.19 | below the threshold | 3.7 | 3.79 | below the threshold | below the threshold | 3.55 | pKd (SNTA1, Q13424): below the threshold; pKd (SYNJ2BP, P57105): 3.5; pKd (TX1BP3, O14907): below the threshold
